According to patent publication US10428327B2, “Compositions and methods for enhancing homologous recombination” (LIFE TECHNOLOGIES CORPORATION, priority 2016, dated 2019):
Oligonucleotides are written 5' to 3', each unit as a sugar letter and its base; * is a phosphorothioate linkage, no mark a phosphodiester; rarer units and linkages stand in square brackets, end groups in braces. Plain capitals give the bases only. d = 2'-deoxy (DNA); {P} = phosphate

Experiments:
Format in all cases: cell-based
[1] = tested on: HEK293 cells stably expressing eBFP; experiment: HDR assay, conversion of eBFP to GFP by flow cytometry; conditions: oligonucleotide length and modification, sequential delivery, 1 nt substitution, 48 hours
Description: To generate a HEK293FT stable cell line expressing eBFP, an eBFP ORF was synthesized by GENEART® custom DNA synthesis (Thermo Fisher Scientific) and then cloned into pDONAR221 vector. Using GATEWAY® recombination technology (Thermo Fisher Scientific), the eBFP ORF was transferred to pLenti6.2-DEST Gateway Vector and then verified by sequencing. Lentivirus was generated using VIRAPOWER® kit as described in the manual. To generate stable cell line, HEK293FT cells were transduced with 0.1 MOI of Lentivirus expressing eBFP. Three days post transduction cells were selected on 5 μg/mL Blasticidine antibiotics for 2 weeks. Cells expressing eBFP were then collected and diluted to […] in complete medium and plated into 96 well plates for single cell clone. After 2 weeks clones were isolated and verified for eBFP expression by flow cytometer. In a reporter assay using a stable eBFP-expressing HEK293 cell line, the substitution of C to T in eBFP gene converts His67 to Tyr67, generating a GFP variant (Table 5).
(§1) To create homologous recombination (HR) assays, a series of gRNAs flanking the insertion site within the EmGFP gene were designed and synthesized (Table 4). Each individual gRNA was combined with GENEART™ […]™ Cas9 Nuclease to form the Cas9 protein/gRNA ribonucleoprotein complexes (Cas9 RNPs). The Cas9 RNPs were then used to transfect cells via NEON® electroporation. The genomic cleavage efficiency was then evaluated using the GENEART® Genomic Cleavage Detection kit at 48 hours post transfection. The gRNAs with highest editing efficiencies and also in close proximity to the insertion site were selected for the subsequent HR assays. For donor design of a single-stranded oligonucleotide, typically the mutation site was positioned at the center flanked by 30 to 50 nucleotides on each side. For asymmetric donor design, 30 nucleotides were placed on either the left or right arm and then 50 or 67 nucleotides on the right or left arm respectively, in both PAM and non-PAM strands. For design of a dsDNA oligonucleotide with single-stranded overhangs, the insertion element was overlapped in the center flanked by various lengths of ssDNA oligonucleotide on each side. By annealing two single-stranded oligonucleotides at 95° C. for 3 minutes, dsDNA donor molecules with either a 5′ protrusion or a 3′ protrusion were generated. To measure homologous recombination efficiency, the donor DNA was either co-transfected with Cas9 RNPs or delivered sequentially into cells via electroporation. At 48 hours post transfection, the gain of EmGFP function in reporter cell lines was determined by flow cytometric analysis with an Attune® NxT Acoustic Focusing Cytometer (Thermo Fisher Scientific). Alternatively, the genomic loci were PCR-amplified using the corresponding primers and then subjected to GENEART® Genomic Cleavage Detection assay or restriction digestion. The resulting PCR products were also subjected to TOPO cloning. Typically, 96 colonies were randomly picked for sequencing. The sequencing data were analyzed using VECTOR NTI ADVANCE® 11.5 software (Thermo Fisher Scientific).
For each homologous recombination assay, 1.5 μg of Cas9 protein and 360 ng of gRNA were added to Resuspension Buffer R to a final volume of 7 μl, but limiting the total volume of Cas9 protein plus gRNA to less than 1 μl. The gRNA could be diluted in Buffer R if the concentration was too high. Upon mixing, the sample was incubated at room temperature for 5 to 10 minutes to form Cas9 RNPs. Meanwhile, […]™ HEK293 cells expressing either eBFP or disrupted EmGFP were detached from culture flask with TRYPLE™ Express Enzyme and then counted. Aliquots of 1×10^6 cells were washed once with DPBS without Ca^2+ and Mg^2+ and the cell pellets were resuspended in 50 μl of Resuspension Buffer R. A 5 μl aliquot of cell suspension was mixed with 7 μl of Cas9 RNPs. […] The electroporated cells were transferred to 300 μl of […]. […]

[2] = tested on: eBFP locus in HEK293 cells expressing eBFP; experiment: EcoRI restriction digestion of PCR-amplified eBFP locus (FLAG tag/EcoRI insertion); conditions: FIG. 11B, length of 3′ overhang, 48 hours
Description: FIG. 11. Insertion of a FLAG tag along with an EcoRI site using dsDNA donor with single-stranded overhangs. (A) Various donor DNA molecules containing a 30-base FLAG tag along with an EcoRI site were designed and synthesized, including single-stranded DNA donor (ssDNA), blunt-end dsDNA donor (blunt), dsDNA donor with 5′ overhang (5′), dsDNA donor with 3′ overhang (3′). The length of overhangs varied from 6 nucleotides (6), 15 nucleotides (15) to 30 nucleotides (30). The 3′ and 5′ ends of the oligonucleotides harbored two consecutive phosphorothioate-modified bases (Table 4). The short dsDNA donors with and without overhangs were prepared by annealing two short DNA oligonucleotides. […] At 48 hours post transfection, the eBFP locus was PCR-amplified. The resulting PCR fragments were analyzed by the genomic cleavage and detection assays to determine the percentage of Indel or subjected to restriction digestion with EcoRI to determine the percentage of digestion. (B) Length of 3′ overhang. […] Alternatively, a dsDNA donor with 30-base 3′ overhang but without phosphorothioate modification (30-3′n) was used. The percentage of digestion with EcoRI was determined at 48 hours post transfection. (C) Dose effect. […] The eBFP loci were PCR-amplified. The resulting PCR fragments were analyzed by EcoRI digest. (D) Sequencing verification. The PCR fragments were cloned into E. coli and 192 clones were randomly picked for sequencing. The relative percentage of wild type (wt), NHEJ, and HDR clones derived from either ssDNA donor (ssDNA) or dsDNA with 3′ overhangs (3′ overhang) was plotted. The white rectangles represented the population of clones that contained the insert but with a point mutation. Examples of edited clones were shown in (E) (not representing the actual percentages of NHEJ and HDR). The underlined sequences represented the FLAG tag along with an RI site. FIG. 11 discloses SEQ ID NOs: 15-24, respectively, from top to bottom.
as §1, with “The sequencing data were analyzed using VECTOR NTI ADVANCE® 11.5 software (Thermo Fisher Scientific).” left out

[3] = tested on: EmGFP gene in GRIPTITE HEK293 cells; experiment: Sequencing analysis of FLAG tag/EcoRI insertion with +5 gRNA; conditions: sequential delivery, 48 hours
Experimental: In order to understand the polarity of dsDNA donor with single stranded overhangs, we inserted a FLAG epitope tag along with an EcoRI site into a separate locus where the +5 gRNA was targeting the bottom strand of EmGFP gene (see Table 21). The Cas9 RNPs were first delivered into […]™ HEK293 cells, followed by the delivery of ssDNA donor, or short dsDNA donors with 32-base single stranded overhangs at either 5′ or 3′ end. Samples in the absence of gRNA served as controls. At 48 hours post transfection, the genomic loci were amplified by PCR. The resulting PCR fragments were subjected to restriction digestion with EcoRI (data not shown) or subjected to sequencing analysis. The integration efficiency of FLAG epitope tag along with an EcoRI was approximately 34% using dsDNA donor with 3′ overhangs and 20% using ssDNA donor.

## 50: unmodified 50-mer ssDNA, BFP point mutation, SEQ ID 54 (DNA CCCACCCTCGTGACCACCCTGACCTACGGCGTGCAGTGCTTCAGCCGCTA; DNA, backbone not given here) [compound 50]
[1]
  Avg (% GFP+ cells): 14.4%

B1: 80: unmodified 80-mer ssDNA, BFP point mutation, SEQ ID 48 (nucleic acid)
DNA: GCTGCCCGTGCCCTGGCCCACCCTCGTGACCACCCTGACCTACGGCGTGCAGTGCTTCAGCCGCTACCCCGACCACATGA
modifications: DNA, backbone not given here
[1]
  Avg (% GFP+ cells): 38.4%

B2: 70: unmodified 70-mer ssDNA, BFP point mutation, SEQ ID 50 (nucleic acid)
DNA: CCCGTGCCCTGGCCCACCCTCGTGACCACCCTGACCTACGGCGTGCAGTGCTTCAGCCGCTACCCCGACC
modifications: DNA, backbone not given here
[1]
  Avg (% GFP+ cells): 34.7%

B3: 45-3′: dsDNA donor with 45-base 3′ overhangs, annealed SEQ ID 95 and 96 (nucleic acid)
chain 1: GACTACAAAGACGATGACGACAAGAATTCTTACGGCGTGCAGTGCTTCAGCCGCTACCCCGACCACATGAAGCAGCAC
chain 2: AAGAATTCTTGTCGTCATCGTCTTTGTAGTCGGTCAGGGTGGTCACGAGGGTGGGCCAGGGCACGGGCAGCTTGCCGG
modifications: chemistry not fully specified
[2]
  Avg (% digestion): 37.0%

B4: PS90: phosphorothioate 90-mer ssDNA, BFP point mutation, SEQ ID 47 (nucleic acid)
DNA: GCAAGCTGCCCGTGCCCTGGCCCACCCTCGTGACCACCCTGACCTACGGCGTGCAGTGCTTCAGCCGCTACCCCGACCACATGAAGCAGC
modifications: 5' phosphate, modified ends, chemistry not fully specified
[1]
  Avg (% GFP+ cells): 38.8%

B5: 90: unmodified 90-mer ssDNA, BFP point mutation, SEQ ID 46 (nucleic acid)
DNA: B4 DNA
modifications: unmodified DNA
[1]
  Avg (% GFP+ cells): 32.8%

B6: PS70: phosphorothioate 70-mer ssDNA, BFP point mutation, SEQ ID 51 (nucleic acid)
DNA: {P}-dC*dC*dCdGdTdGdCdCdCdTdGdGdCdCdCdAdCdCdCdTdCdGdTdGdAdCdCdAdCdCdCdTdGdAdCdCdTdAdCdGdGdCdGdTdGdCdAdGdTdGdCdTdTdCdAdGdCdCdGdCdTdAdCdCdCdCdGdA*dC*dC
[1]
  Avg (% GFP+ cells): 39.2%

B7: 32-3′: short dsDNA donor with 32-base 3′ overhangs, EmGFP, SEQ ID 100 and 101 (nucleic acid)
chain 1: AGAATTCTTGTCGTCATCGTCTTTGTAGTCAGGTGGTCACGAGGGTGGGCCAGGGCACGGGC
chain 2: GACTACAAAGACGATGACGACAAGAATTCTACGGCGTGCAGTGCTTCGCCCGCTACCCCGAC
modifications: DNA, backbone and methylation of C not given here; further chemistry not fully specified
[3]
  Relative % HDR (integration of FLAG epitope tag along with EcoRI): 34.2%
  Relative % NHEJ: 54.6%
  Relative % wt: 11.1%
[3]; listed as dsDNA donor with 3′ overhangs
  Relative % HDR (integration of FLAG epitope tag along with EcoRI): approximately 34%

B8: 32-5′: short dsDNA donor with 32-base 5′ overhangs, EmGFP, SEQ ID 98 and 99 (nucleic acid)
chain 1: GCCCGTGCCCTGGCCCACCCTCGTGACCACCTGACTACAAAGACGATGACGACAAGAATTCTA
chain 2: GTCGGGGTAGCGGGCGAAGCACTGCACGCCGTAGAATTCTTGTCGTCATCGTCTTTGTAGTC
modifications: DNA, backbone and methylation of C not given here; further chemistry not fully specified
[3]
  Relative % HDR (integration of FLAG epitope tag along with EcoRI): 0.0%
  Relative % NHEJ: 78.0%
  Relative % wt: 22.0%
[3]; listed as dsDNA donor with 5′ overhangs
  Relative % HDR (integration of FLAG epitope tag along with EcoRI): barely detectable integration product

B9: PS100: phosphorothioate 100-mer ssDNA, BFP point mutation, SEQ ID 45 (nucleic acid)
DNA: {P}-dA*dC*dCdGdGdCdAdAdGdCdTdGdCdCdCdGdTdGdCdCdCdTdGdGdCdCdCdAdCdCdCdTdCdTdGdAdCdCdAdCdCdCdTdGdAdCdCdTdAdCdGdGdCdGdTdGdCdAdGdTdGdCdTdTdCdAdGdCdCdGdCdTdAdCdCdCdCdGdAdCdCdAdCdAdTdGdAdAdGdCdAdGdCdAdCdGdA*dC*dT
[1]
  Avg (% GFP+ cells): 38.4%
